Entries after “also recorded” stand apart in the source; their conditions may differ. Blank lines part the entries; values can stand above or below the molecule they belong to.
Key:
[1] = biological target: T1, PSMA-expressing LNCaP cells (Homo sapiens, UniProt Q04609); test: Binding specificity by flow cytometry; details: FITC-labeled anti-human IgG detection, different antibody concentrations
T1 construct: host or cells: LNCaP human prostate cancer cells
Method: The human PSMA-expressing prostate cancer cell line LNCaP was used to determine the specificity of anti-PSMA human monoclonal antibodies by flow cytometry. Binding of the 2F5, 2A10, and 2C6 anti-PSMA human monoclonal antibodies was assessed by incubating the LNCaP cells with the anti-PSMA human monoclonal antibodies at different concentrations. The cells were washed and binding was detected with a FITC-labeled anti-human IgG Ab. Flow cytometric analyses were performed using a FACScan flow cytometry (Becton Dickinson, San Jose, Calif.). The human anti-PSMA monoclonal antibody 7F12 (as described in PCT Publication WO 03/064606) was used as a positive control and a non-PSMA specific isotype control antibody was used as a negative control. The results are depicted in FIG. 9.

[2] = biological target: T2, PSMA immunopurified from LNCaP cells (Homo sapiens, UniProt Q04609); test: Binding specificity by ELISA; details: antibody from 5 μg/ml, 1:2 serial dilutions
T2 construct: endogenous in cells; host or cells: LNCaP cells (protein immunopurified from them)
T2 sequence (Q04609 whole entry): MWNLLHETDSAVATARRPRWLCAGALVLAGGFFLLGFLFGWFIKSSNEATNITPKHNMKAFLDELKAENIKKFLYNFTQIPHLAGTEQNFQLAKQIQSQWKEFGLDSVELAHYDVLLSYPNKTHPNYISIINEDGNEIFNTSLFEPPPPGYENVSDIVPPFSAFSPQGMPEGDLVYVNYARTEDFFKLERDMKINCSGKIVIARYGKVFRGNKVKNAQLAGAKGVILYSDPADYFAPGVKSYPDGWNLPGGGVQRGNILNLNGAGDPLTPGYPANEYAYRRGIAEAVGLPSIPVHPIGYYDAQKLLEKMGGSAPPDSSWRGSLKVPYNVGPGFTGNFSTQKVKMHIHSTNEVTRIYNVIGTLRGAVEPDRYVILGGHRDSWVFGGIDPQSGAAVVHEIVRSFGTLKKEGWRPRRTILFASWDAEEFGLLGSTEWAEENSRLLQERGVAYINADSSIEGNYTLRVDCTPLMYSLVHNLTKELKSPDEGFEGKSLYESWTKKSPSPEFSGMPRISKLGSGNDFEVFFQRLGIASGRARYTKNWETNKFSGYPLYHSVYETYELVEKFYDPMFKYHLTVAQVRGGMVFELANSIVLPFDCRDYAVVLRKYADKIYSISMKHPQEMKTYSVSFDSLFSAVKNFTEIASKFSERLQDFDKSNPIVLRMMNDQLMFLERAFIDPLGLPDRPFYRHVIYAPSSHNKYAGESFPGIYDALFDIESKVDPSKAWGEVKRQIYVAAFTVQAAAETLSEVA
Method: A comparison of anti-PSMA antibodies on binding to immunopurified PSMA was performed by standard ELISA to examine the specificity of binding for PSMA.
PSMA was immunopurified from LNCaP cells and tested for binding against the anti-PSMA human monoclonal antibodies 1C3, 2A10, 2F5, and 2C6. Standard ELISA procedures were performed. The anti-PSMA human monoclonal antibodies were added at a concentration of 5 μg/ml and titrated down at 1:2 serial dilutions. Goat-anti-human IgG (kappa chain-specific) polyclonal antibody conjugated with horseradish peroxidase (HRP) was used as secondary antibody. The human anti-PSMA monoclonal antibody 7F12 was used as a positive control and a blank was used as a negative control.

T1 sequence (Q04609 whole entry): as above

binding to immunopurified PSMA [2]: detectable but only low level binding
B1: 2C6: human monoclonal anti-PSMA antibody, VH SEQ ID NO: 4, VL SEQ ID NO: 8 (antibody, listed as Homo sapiens, V domains shown)
VH: EVQLVQSGSEVKKPGESLKISCKGSGYSFTNYWIGWVRQMPGKGLEWMGIIYPGDSDTRYSPSFQGQVTISADKSISTAYLQWSSLKASDTAMYYCASPGYTSSWTSFDYWGQGTLVTVSS
VL: EIVLTQSPATLSLSPGERATLSCRASQSVSSYLAWYQQKPGQAPRLLIYDASNRATGIPARFSGSGSGTDFTLTISSLEPEDFAVYYCQQRSNWPLFTFGPGTKVDIK
binding to PSMA-expressing LNCaP cells [1]: bound specifically; also recorded: binds the cell surface of PSMA-expressing LNCaP cells

binding to immunopurified PSMA [2]: detectable but only low level binding
B2: 1C3: human monoclonal anti-PSMA antibody, VH SEQ ID NO: 1, VL SEQ ID NO: 5 (antibody, listed as Homo sapiens, V domains shown)
VH: QVQLVESGGGVVQPGRSLRLSCAASGFTFSSYAMHWVRQAPGKGLEWVAVISYDGNNKYYADSVKGRFTISRDNSKNTLYLQMNSLRAEDTAVYYCARAVPWGSRYYYYGMDVWGQGTTVTVSS
VL: AIQLTQSPSSLSASVGDRVTITCRASQGISSALAWYQQKSGKAPKLLIFDASSLESGVPSRFSGSGSGTDFTLTISSLQPEDFATYYCQQFNSYPLTFGGGTKVEIK

binding to immunopurified PSMA [2]: bound with high specificity
B3: 2F5: human monoclonal anti-PSMA antibody, VH SEQ ID NO: 3, VL SEQ ID NO: 7 (antibody, listed as Homo sapiens, V domains shown)
VH: EVQLVQSGAEVKKPGESLKISCKGSGYSFTSNWIGWVRQMPGKGLEWMGIIYPGDSDTRYSPSFQGQVTISADKSISTAYLQWNSLKASDTAMYYCARQTGFLWSFDLWGRGTLVTVSS
VL: AIQLTQSPSSLSASVGDRVTITCRASQDISSALAWYQQKPGKAPKLLIYDASSLESGVPSRFSGSGSGTDFTLTISSLQPEDFATYYCQQFNSYPLTFGGGTKVEIKIK
binding to PSMA-expressing LNCaP cells [1]: bound specifically; also recorded: binds the cell surface of PSMA-expressing LNCaP cells

From patent US20090297438A1, “Human Monoclonal Antibodies to Prostate Specific Membrane Antigen (PSMA)” (priority 2005, published 2009)
